Results: IntAct's records for PubMed 19233177

B1: Polycomb complex protein BMI-1 (Homo sapiens), P35226 (parent)
chain: MHRTTRIKITELNPHLMCVLCGGYFIDATTIIECLHSFCKTCIVRYLETSKYCPICDVQVHKTRPLLNIRSDKTLQDIVYKLVPGLFKNEMKRRRDFYAAHPSADAANGSNEDRGEVADEDKRIITDDEIISLSIEFFDQNRLDRKVNKDKEKSKEEVNDKRYLRCPAAMTVMHLRKFLRSKMDIPNTFQIDVMYEEEPLKDYYTLMDIAYIYTWRRNGPLPLKYRVRPTCKRMKISHQRDGLTNAGELESDSGSDKANSPAGGIPSTSSCLPSPSTPVQSPHPQFPHISSTMNGTSNSPSGNHQSSFANRPRKSSVNGSSATSSG

Variants of: B1
Details: with ubc_human UBC

Q: For C18Y, which “effect of a mutation on the interaction” value is on record?
A: increasing interaction
